# In US20260193326A1:
# B1: A4-D9 (bispecific antibody)
# chain: VQLQESGGGLVHSGGSLRLSCAASGSMFSLNTMGWYRQAPGKQRELVATITRGGGTSYADSVKGRFTISRDNAKNTVYLQMNSLRPEDTAVYYCHVDELRQSSWTTSNLWGQGTQVTVSSGGGGSGGGGSGGGGSVQLQESGGGLVQPGGSLRLSCAASGSRFSLNTMGWYRQAPGKQRELVATVTRGGSTNYADFVKGRFTISRDNAKNTVYLQMNSLRPEDTAVYYCHVDELRESGWTTSNLWGQGTQVTVSSGGGGSGGGGSGGGGSVQLQESGGGLVQPGGSLRLSCAASGSRFSLNTMGWYRQAPGKQRELVATVTRGGSTNYADFVKGRFTISRDNAKNTVYLQMNSLRPEDTAVYYCHVDELRESGWTTSNLWGQGTQVTVSSGGGGSGGGGSGGGGSVQLQESGGGLVQTGGSLRLSCAASGRAFSLNTMGWYRQAPGKWRELVATVTRGGSTNYAGSVKGRFTISRDNAKNTVYLQMNNLRPEDTAVYYCHVDEVRESSWTTSNLWGQGTQVTVSS
# B2: A4-D13 (protein)
# chain: VQLQESGGGLVQPGGSLRLSCAASGSIFIINTMGWYRRAPGKQRELVAAVTRGGSTNYADSVKGRFTISRDNAKNTVYLQMNSLRPEDTAVYYCHVDEVRQSSWTTSNLWGQGTQVTVSSGGGGSGGGGSGGGGSVQLQESGGGLVQPGGSLRLSCAASGSIFSINTMGWYRQAPGKQRELVAAVTRGGSTNYADSVKGRFTISRDNAKNTVYLQMNSLRPEDTAVYYCHVDEVRQSSWTTSNLWGQGTQVTVSSGGGGSGGGGSGGGGSVQLQESGGGLAQAGGSLRLSCAASGRGFSINTMGWYRQAPGKQRELVAAVTRGGTTNYADSVKGRFTISRDNAKNTVYLQMNSLRPEDTAVYYCHVDEVRQSSWTTSNLWGQGTQVTVSSGGGGSGGGGSGGGGSVQLQESGGGLVQPGGSLRLSCAASGRAFSINTMGWYRQAPGKQRELVATVTRDGSTNYAGSVKGRFTISRDNAKNTVYLQMNSLRPEDTAVYYCHVDEVRQSSWTTSNLWGQGTQVTVSS
# B3: A4-D7 (bispecific antibody)
# chain: VQLQESGGGLVQTGGSLRLSCAASGRAFSLNTMGWYRQAPGKWRELVATVTRGGSTNYAGSVKGRFTISRDNAKNTVYLQMNNLRPEDTAVYYCHVDEVRESSWTTSNLWGQGTQVTVSSGGGGSGGGGSGGGGSVQLQESGGGLVQPGGSLRLSCAASGSIFTINSMGWYRQAPGKWRELVATVTRGGNTNYANSVKGRFTISRDNAKNTVYLQMNTLRPEDTAVYYCHLDEVRDSSWTTSNLWGQGTQVTVSSGGGGSGGGGSGGGGSVQLQESGGGLVQPGGSLRLSCAASGSIFSINSMGWYRQAPGKWRELVATVTRGGSTNYANSVKGRFTISRDNAKNTVYLQMNTLRPEDTAVYYCHLDEVRDSSWTTSNLWGQGTQVTVSSGGGGSGGGGSGGGGSVQLQESGGGLVQTGGSLRLSCAASGRAFSLNTMGWYRQAPGKWRELVATVTRGGSTNYAGSVKGRFTISRDNAKNTVYLQMNNLRPEDTAVYYCHVDEVRESSWTTSNLWGQGTQVTVSS
# B4: A4-D12 (protein)
# chain: VQLQESGGGLVQPGGSLRLSCAASGSIFSINTMGWYRQAPGKQRELVAAVTRGGSTNYADSVKGRFTISRDNAKNTVYLQMNSLRPEDTAVYYCHVDEVRQSSWTTSNLWGQGTQVTVSSGGGGSGGGGSGGGGSVQLQESGGGLAQAGGSLRLSCAASGRGFSINTMGWYRQAPGKQRELVAAVTRGGTTNYADSVKGRFTISRDNAKNTVYLQMNSLRPEDTAVYYCHVDEVRQSSWTTSNLWGQGTQVTVSSGGGGSGGGGSGGGGSVQLQESGGGLVQPGGSLRLSCAASGRAFSINTMGWYRQAPGKQRELVATVTRDGSTNYAGSVKGRFTISRDNAKNTVYLQMNSLRPEDTAVYYCHVDEVRQSSWTTSNLWGQGTQVTVSSGGGGSGGGGSGGGGSVQLQESGGGLVQPGGSLRLSCAASGSIFIINTMGWYRRAPGKQRELVAAVTRGGSTNYADSVKGRFTISRDNAKNTVYLQMNSLRPEDTAVYYCHVDEVRQSSWTTSNLWGQGTQVTVSS
# B5: A4-D8 (bispecific antibody)
# chain: VQLQESGGGLVQPGGSLRLSCAASGSRFSLNTMGWYRQAPGKQRELVATVTRGGSTNYADSVKGRFTISRDNAKNTVYLQMNSLRPEDTAVYYCHVDELRESGWTTSNLWGQGTQVTVSSGGGGSGGGGSGGGGSVQLQESGGGLVQPGGSLRLSCAASGSRFSLNTMGWYRQAPGKQRELVATVTRGGSTNYADFVKGRFTISRDNAKNTVYLQMNSLRPEDTAVYYCHVDELRESGWTTSNLWGQGTQVTVSSGGGGSGGGGSGGGGSVQLQESGGGLVHSGGSLRLSCAASGSMFSLNTMGWYRQAPGKQRELVATITRGGGTSYADSVKGRFTISRDNAKNTVYLQMNSLRPEDTAVYYCHVDELRQSSWTTSNLWGQGTQVTVSSGGGGSGGGGSGGGGSVQLQESGGGLVQPGGSLRLSCAASGSRFSLNTMGWYRQAPGKQRELVATVTRGGSTNYADFVKGRFTISRDNAKNTVYLQMNSLRPEDTAVYYCHVDELRESGWTTSNLWGQGTQVTVSS
# B6: A4-D10 (protein)
# chain: VQLQESGGGLAQAGGSLRLSCAASGRGFSINTMGWYRQAPGKQRELVAAVTRGGTTNYADSVKGRFTISRDNAKNTVYLQMNSLRPEDTAVYYCHVDEVRQSSWTTSNLWGQGTQVTVSSGGGGSGGGGSGGGGSVQLQESGGGLVQPGGSLRLSCAASGRAFSINTMGWYRQAPGKQRELVATVTRDGSTNYAGSVKGRFTISRDNAKNTVYLQMNSLRPEDTAVYYCHVDEVRQSSWTTSNLWGQGTQVTVSSGGGGSGGGGSGGGGSVQLQESGGGLVQPGGSLRLSCAASGSIFIINTMGWYRRAPGKQRELVAAVTRGGSTNYADSVKGRFTISRDNAKNTVYLQMNSLRPEDTAVYYCHVDEVRQSSWTTSNLWGQGTQVTVSSGGGGSGGGGSGGGGSVQLQESGGGLVQPGGSLRLSCAASGSIFSINTMGWYRQAPGKQRELVAAVTRGGSTNYADSVKGRFTISRDNAKNTVYLQMNSLRPEDTAVYYCHVDEVRQSSWTTSNLWGQGTQVTVSS
# B7: A4-D11 (protein)
# chain: VQLQESGGGLVQPGGSLRLSCAASGRGFSINTMGWYRQAPGKQRELVAAVTRGGTTNYADSVKGRFTISRDNAKNTVYLQMNSLRPEDTAVYYCHVDEVRQSSWTTSNLWGQGTQVTVSSGGGGSGGGGSGGGGSVQLQESGGGLVQPGGSLRLSCAASGSIFSINTMGWYRQAPGKQRELVAAVTRGGSTNYADSVKGRFTISRDNAKNTVYLQMNSLRPEDTAVYYCHVDEVRQSSWTTSNLWGQGTQVTVSSGGGGSGGGGSGGGGSVQLQESGGGLVQPGGSLRLSCAASGSIFIINTMGWYRRAPGKQRELVAAVTRGGSTNYADSVKGRFTISRDNAKNTVYLQMNSLRPEDTAVYYCHVDEVRQSSWTTSNLWGQGTQVTVSSGGGGSGGGGSGGGGSVQLQESGGGLVQPGGSLRLSCAASGSSFVINTMGWYRQAPGKQRELVAAVTRGGSTNYADSVKGRFTISRDNAKNTVYLQMNSLRPEDTAVYYCHVDEVRQSSWTTSNLWGQGTQVTVSS
# Tests used:
# Assay in all cases: SPR, AAV on CM5 chip
# [1] = biological target: AAV5 (adeno-associated virus serotype 5)
# [2] = biological target: AAV8 (adeno-associated virus serotype 8)
# [3] = biological target: AAV9 (adeno-associated virus serotype 9)
Binder,Kd [1] [nM],koff [1] [s⁻¹],kon [1] [M⁻¹ s⁻¹],Kd [2] [nM],koff [2] [s⁻¹],kon [2] [M⁻¹ s⁻¹],Kd [3] [nM],koff [3] [s⁻¹],kon [3] [M⁻¹ s⁻¹]
B1,0.1,2.3e-06,22900,0.318,9.9e-06,31100,0.745,1.94e-05,26000
B2,0.701,1.31e-05,18700,0.355,6.9e-06,19400,0.0471,2.6e-06,55200
B3,0.216,4.9e-06,22700,1.41,1.79e-05,12700,0.658,9.4e-06,14300
B4,0.44,1.7e-05,38600,0.262,6.5e-06,24800,0.0555,3e-06,54000
B5,1.49,1.96e-05,13200,0.228,1.1e-05,48200,0.313,1.32e-05,42200
B6,0.481,8.3e-06,17300,0.542,1.66e-05,30700,0.0611,1.9e-06,31100
B7,1.15,1.4e-05,12200,0.319,1.5e-05,47000,0.181,4.8e-06,26500
